For experiment [1], the target named is wild type dynamin (dynWT; recombinant dynamin 1) (UniProt Q05193). The experiment is described as follows: FLIM/FRET in fixed podocytes treated with LPS; donor GTPase-Alexa488, acceptor Hudy1-Alexa568; self-assembly.
The target is the same in experiment [2]. The experiment is described as follows: FLIM/FRET in fixed podocytes; donor GTPase-a488, acceptor Hudy1-a568; self-assembly.
Experiment [3] has the same target. The experiment is described as follows: FLIM/FRET in fixed podocytes treated with cytochalasin D; donor GTPase-a488, acceptor Hudy1-a568; self-assembly.
Experiment [4] has the same target. Description: FLIM/FRET in fixed podocytes treated with colchicine; donor GTPase-a488, acceptor Hudy1-a568; variant not given, taken as WT.
For experiment [5] the target is unchanged. Description: FLIM/FRET in fixed podocytes; donor GTPase-alexa488, acceptor hudy1-alexa568; the value differs from the WT row of Table 1.
For experiment [6] the target is unchanged. Description: FLIM/FRET in fixed podocytes treated with LPS + E64; donor GTPase-Alexa488, acceptor Hudy1-Alexa568; self-assembly.
The target is the same in experiment [7]. The experiment is described as follows: FLIM/FRET in fixed podocytes expressing the variant; donor GTPase-Alexa488, acceptor Hudy1-Alexa568; shorter lifetime = dynamin higher order self-assembly.
The target is the same in experiment [8]. Description: FLIM/FRET in fixed podocytes; donor GTPase-a488, acceptor GTPase-a568 (same antibody on both); the text says no FRET signal was detected with this antibody pair.
Experiment [9] shares this target. The experiment is described as follows: FLIM/FRET in fixed podocytes treated with jasplakinolide; donor GTPase-a488, acceptor Hudy1-a568; variant not given, taken as WT.
Experiment [10] concerns the target dynK694A (assembly impaired, dominant activating dynamin mutant) (UniProt Q05193). Description: FLIM/FRET in fixed podocytes; donor GTPase-a488, acceptor Hudy1-a568; self-assembly.
Experiment [11] has the same target. Description: FLIM/FRET in fixed podocytes treated with cytochalasin D; donor GTPase-a488, acceptor Hudy1-a568; self-assembly.
For experiment [12] the target is unchanged. The experiment is described as follows: FLIM/FRET in fixed podocytes expressing the variant; donor GTPase-Alexa488, acceptor Hudy1-Alexa568; self-assembly.
For a further experiment, the target named is T1, EYFP-dynK694A fusion (UniProt Q05193 1-864).
T1 construct: also called YFP-K694A; not shown: EYFP tag
T1 sequence (looked up): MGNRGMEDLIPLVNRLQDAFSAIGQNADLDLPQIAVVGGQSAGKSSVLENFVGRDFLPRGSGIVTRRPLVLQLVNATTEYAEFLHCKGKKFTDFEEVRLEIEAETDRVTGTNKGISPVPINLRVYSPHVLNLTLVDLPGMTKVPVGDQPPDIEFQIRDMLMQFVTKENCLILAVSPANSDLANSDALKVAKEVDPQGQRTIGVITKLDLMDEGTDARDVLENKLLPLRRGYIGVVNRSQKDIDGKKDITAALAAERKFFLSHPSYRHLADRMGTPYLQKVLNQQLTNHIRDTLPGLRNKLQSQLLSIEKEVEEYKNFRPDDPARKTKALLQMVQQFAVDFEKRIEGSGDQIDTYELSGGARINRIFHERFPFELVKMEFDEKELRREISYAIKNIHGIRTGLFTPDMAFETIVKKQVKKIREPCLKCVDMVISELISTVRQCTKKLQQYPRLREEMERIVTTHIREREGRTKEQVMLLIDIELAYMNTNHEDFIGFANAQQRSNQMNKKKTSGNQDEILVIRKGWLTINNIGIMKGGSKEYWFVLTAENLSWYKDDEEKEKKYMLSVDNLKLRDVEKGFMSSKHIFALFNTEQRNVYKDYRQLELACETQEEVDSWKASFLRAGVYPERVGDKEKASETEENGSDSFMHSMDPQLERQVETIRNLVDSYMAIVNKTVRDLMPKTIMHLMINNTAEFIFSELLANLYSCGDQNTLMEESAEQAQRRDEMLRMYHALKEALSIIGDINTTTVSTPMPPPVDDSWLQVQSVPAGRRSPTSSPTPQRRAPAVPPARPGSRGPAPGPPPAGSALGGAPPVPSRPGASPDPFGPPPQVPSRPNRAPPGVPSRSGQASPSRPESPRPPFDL
The experiment is described as follows: FLIM/FRET in live COS cells; lifetime of the ECFP donor; self-assembly.

The next experiment addresses T2, EYFP-dynI690K fusion (UniProt Q05193 1-864).
T2 construct: it is read as I690K; also called YFP-1690K; not shown: EYFP tag
T2 sequence (looked up): T1 sequence (looked up) with I690K, A694K
Described as above.

For experiment [13], the target named is T3, EYFP-dynamin wild type fusion (UniProt Q05193 1-864).
T3 construct: also called YFP-WT; EYFP-dynWT; not shown: EYFP tag
T3 sequence (looked up): T1 sequence (looked up) with A694K
The description is as above.

Where a chain is given by its changes, count along the chain named. Names may count otherwise.

Regarding “wild type dynamin (dynWT; recombinant dynamin 1) (from UniProt Q05193 1-864) (enzyme)”, the Mean Lifetime (γ1) in experiment [1] came out at 2560 ps; in [2], 2250 ps; in experiment [3], 2030 ps; in experiment [4] it was 2300 ps; in [6] it was 2280 ps; in [7], 2210 ps. The Mean Lifetime (γ1) is 2420 ps in experiment [8] and 2250 ps in experiment [9]. Also, the lifetime t1 in [5] came out at 2270 ps.

B1: dynK694A (assembly impaired, dominant activating dynamin mutant) (enzyme, UniProt Q05193 1-864, looked up)
chain: T1 sequence (looked up)
On to B1, for which the values for the Mean Lifetime (γ1) in [10], in experiment [11] and in [12] were 2410 ps, 2050 ps and 2410 ps, respectively.

B2: ECFP-dynK694A fusion (other, UniProt Q05193 1-864, looked up)
chain: T1 sequence (looked up)
notes: also called CFP-K694A; not shown: ECFP tag
Take B2: the “Mean Lifetime (γ1) ps” value in the experiment with EYFP-dynK694A fusion came out at 1300 ps.

B3: ECFP-dynI690K fusion (other, UniProt Q05193 1-864, looked up)
chain: T1 sequence (looked up) with I690K, A694K
notes: it is read as I690K; also called CFP-1690K; not shown: ECFP tag
B3: the “Mean Lifetime (γ1) ps” value worked out at 2070 ps in the experiment with EYFP-dynI690K fusion and 1110 ps in experiment [13].

The values are drawn from patent US20100272709A1 (GENERAL HOSPITAL, published 2010).
